Measurements: PMC8516096

How the values were obtained:
Details in all cases: Holoenzyme reconstitution: 200 mM Tris-HCl pH 8.0, 30 mM KCl, 10 mM MgCl2, 50 mM NaCl, 1 mM DTT, 1 mM EDTA, BSA 20 ug/ml, 30 C 45 min; DNA binding: 50 mM …
[1] = molecular target: RNAP core enzyme (E, alpha2 beta beta' omega) (Escherichia coli) (UniProt P0A7Z4+P0A8V2+P0A8T7+P0A800); test: EMSA
[2] = molecular target: T1, RNAP core enzyme (E, alpha2 beta beta' omega);RpoS (sigmaS, sigma38) (Escherichia coli;Salmonella enterica serovar Typhimurium ATCC 14028?) (UniProt P0A7Z4+P0A8V2+P0A8T7+P0A800+D0ZVL4); test: EMSA
[3] = molecular target: RNAP core enzyme (E, alpha2 beta beta' omega);RpoD (sigmaD, sigma70) (Escherichia coli;Salmonella enterica serovar Typhimurium ATCC 14028?) (UniProt P0A7Z4+P0A8V2+P0A8T7+P0A800+P0A2E3); test: EMSA
[4] = molecular target: T2, RNAP core enzyme (E, alpha2 beta beta' omega);RpoS (sigmaS, sigma38);Crl (Escherichia coli;Salmonella enterica serovar Typhimurium ATCC 14028?;Salmonella enterica serovar Typhimurium ATCC 14028?) (UniProt P0A7Z4+P0A8V2+P0A8T7+P0A800+D0ZVL4+Q7CR52); test: competition EMSA with anti-RpoS immunoblot
[5] = molecular target: T2, RNAP core enzyme (E, alpha2 beta beta' omega);RpoS (sigmaS, sigma38);Crl (Escherichia coli;Salmonella enterica serovar Typhimurium ATCC 14028?;Salmonella enterica serovar Typhimurium ATCC 14028?); test: EMSA with anti-RpoS immunoblot
[6] = molecular target: T1, RNAP core enzyme (E, alpha2 beta beta' omega);RpoS (sigmaS, sigma38) (Escherichia coli;Salmonella enterica serovar Typhimurium ATCC 14028?); test: EMSA with anti-RpoS immunoblot

Measured: binding

AGTACATATAGTTTCATCAGAAGATTAATCGATGGTGTTATCATTAGGAAGATAAATTTCTTCATATATAACCCAGTCGATGACTACAATTACTTTTTAATAAGATGGCGATGTAAAAACATCGTAACAGTTTATTTAATAAATAATTTTTCAAATTGTAAGTTTTTATGTC (double strand) [PssrA region]
binds: all assays above
